From paper PMC10229617 (Nature Communications, 2023)

Target: the molecule itself
Assay: native MS; MS spectrum of the archaeal α/β assembly mixture (assembled without the 60 °C step), 150 mM ammonium acetate pH 7.5

B1: T. acidophilum 20S proteasome α-ring (α7), tag cleaved (natural protein, Thermoplasma acidophilum)
chain: MQQGQMAYDRAITVFSPDGRLFQVEYAREAVKKGSTALGMKFANGVLLISDKKVRSRLIEQNSIEKIQLIDDYVAAVTSGLVADARVLVDFARISAQQEKVTYGSLVNIENLVKRVADQMQQYTQYGGVRPYGVSLIFAGIDQIGPRLFDCDPAGTINEYKATAIGSGKDAVVSFLEREYKENLPEKEAVTLGIKALKSSLEEGEELKAPEIASITVGNKYRIYDQEEVKKFL
notes: proteasome subunit alpha, Thermoplasma acidophilum; source: E. coli BL21(DE3), purified (HisTrap FF, TEV cleavage), in the assembly mixture
  stoichiometry N: 7
